“Also recorded” adds a separate entry of the source. Like-named read-outs stand apart in the source and are kept apart here.
T1: isolated HNE (human neutrophil elastase) (Homo sapiens, UniProt P08246)
T1 construct: immediately processed to its active form in the trans-Golgi before being targeted to azurophil granules; purchased Merck (Darmstadt, Germany) 324681
T1 sequence (P08246 30-267): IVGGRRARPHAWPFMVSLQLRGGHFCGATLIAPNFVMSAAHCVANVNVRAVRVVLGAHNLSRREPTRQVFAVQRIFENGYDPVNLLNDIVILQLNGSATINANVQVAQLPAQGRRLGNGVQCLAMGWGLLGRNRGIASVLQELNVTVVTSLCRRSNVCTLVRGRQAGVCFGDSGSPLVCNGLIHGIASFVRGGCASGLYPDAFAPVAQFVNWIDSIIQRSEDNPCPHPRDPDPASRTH

T2: HNE in U937 cells (Homo sapiens, UniProt P08246)
T2 construct: the myeloid cell line U937, which can differentiate into neutrophils [25] and expresses HNE; host or cells: U937 (histiocytic lymphoma), undifferentiated
T2 sequence (P08246 30-247 limits assumed): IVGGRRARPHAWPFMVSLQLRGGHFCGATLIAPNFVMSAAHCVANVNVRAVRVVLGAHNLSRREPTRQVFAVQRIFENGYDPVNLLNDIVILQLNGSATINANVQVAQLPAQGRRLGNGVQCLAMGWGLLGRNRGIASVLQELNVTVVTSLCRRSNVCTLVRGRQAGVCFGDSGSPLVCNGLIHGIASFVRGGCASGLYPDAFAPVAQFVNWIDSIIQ

T3: HNE in U937 lysates (Homo sapiens, UniProt P08246)
T3 construct: the myeloid cell line U937, which can differentiate into neutrophils [25] and expresses HNE; host or cells: U937 (histiocytic lymphoma), undifferentiated
T3 sequence (P08246 30-247 limits assumed): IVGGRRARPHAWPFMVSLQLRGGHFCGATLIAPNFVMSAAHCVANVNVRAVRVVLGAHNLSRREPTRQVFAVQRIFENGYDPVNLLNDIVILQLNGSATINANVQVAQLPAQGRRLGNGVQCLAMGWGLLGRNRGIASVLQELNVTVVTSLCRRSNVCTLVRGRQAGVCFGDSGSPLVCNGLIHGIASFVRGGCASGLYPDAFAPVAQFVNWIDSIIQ

T4: isolated HNE (Homo sapiens, UniProt P08246)
T4 construct: immediately processed to its active form in the trans-Golgi before being targeted to azurophil granules; purchased Merck (Darmstadt, Germany) 324681
T4 sequence (P08246 30-267): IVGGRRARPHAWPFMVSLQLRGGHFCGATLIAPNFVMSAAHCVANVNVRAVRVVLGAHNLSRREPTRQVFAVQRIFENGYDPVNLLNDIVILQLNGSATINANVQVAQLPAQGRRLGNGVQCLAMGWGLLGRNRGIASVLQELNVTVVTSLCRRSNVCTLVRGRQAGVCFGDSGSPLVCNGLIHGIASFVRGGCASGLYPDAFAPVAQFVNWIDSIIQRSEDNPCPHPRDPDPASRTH

T5: HNE in mature PMN (Homo sapiens, UniProt P08246)
T5 sequence (P08246 30-247 limits assumed): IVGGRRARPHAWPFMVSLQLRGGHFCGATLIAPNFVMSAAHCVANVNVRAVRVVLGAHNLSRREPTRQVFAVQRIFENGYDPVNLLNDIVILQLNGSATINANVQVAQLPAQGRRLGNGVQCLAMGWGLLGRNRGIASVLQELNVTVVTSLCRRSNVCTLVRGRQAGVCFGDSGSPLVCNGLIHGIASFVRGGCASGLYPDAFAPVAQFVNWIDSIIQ

T6: elastase-like activity (HNE) in PMN lysates (Homo sapiens, UniProt P08246)
T6 construct: from tissue; host or cells: neutrophil granulocytes from peripheral venous blood of healthy human donors
T6 sequence (P08246 30-247 limits assumed): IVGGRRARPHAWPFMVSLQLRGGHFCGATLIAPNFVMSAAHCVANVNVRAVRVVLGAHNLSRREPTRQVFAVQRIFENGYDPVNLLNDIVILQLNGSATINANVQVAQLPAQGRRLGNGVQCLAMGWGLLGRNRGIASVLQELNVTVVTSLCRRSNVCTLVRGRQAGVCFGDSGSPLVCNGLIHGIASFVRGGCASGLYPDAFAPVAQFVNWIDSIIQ

T7: eglin C (Hirudo medicinalis, UniProt P01051)
T7 chain: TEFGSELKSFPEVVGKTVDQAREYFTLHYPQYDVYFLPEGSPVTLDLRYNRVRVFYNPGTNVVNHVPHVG


Tests used:
[1] = tested on: elastase-like activity in HL-60 lysates; experiment: Inhibition of elastase-like activity in HL-60 lysates; assay type: biochemical, human; conditions: 4 µM, 1 h, 37 °C
Text: (§1) For the quantification and characterization of HNE-like activity in cell lysates, the density of the sample cell suspension was first quantified using a CASY-1 cell counter.

[2] = molecular target: T1, isolated HNE (human neutrophil elastase); experiment: Inhibition of isolated HNE, steady-state kinetics (MeOSuc-AAPV-AMC); assay type: biochemical; conditions: 4 µM, 1 h, 37 °C, HNE 0.5 nM
Method: (§2) To determine the inhibition constants of reversible inhibitors with isolated HNE and HNE in cell lysates, HNE (0.5 nM) and U937 lysates (1000 cells/µL) were incubated with serial dilutions of the compounds in assay buffer at 37 °C for ≥ 1 h. Subsequently, residual HNE activity was measured as described above and compared to the activity of uninhibited HNE. […] The inhibition curves generated were fitted to Morrisons’s equation to obtain the dissociation equilibrium constant Ki with pro-Fit (Quantum Soft, Uetikon am See, Switzerland) using a Levenberg–Marquardt algorithm.

[3] = molecular target: T2, HNE in U937 cells; experiment: Intracellular HNE inhibition in cultured U937 cells (residual activity in lysates); assay type: cell-based; conditions: for effect on HNE activity in the U937 cell culture model (in words): 0-26 h, increasing concentrations, alvelestat and sivelestat up to more than 1000-fold above Ki
Method: (§3) The enzymatic activity of HNE was measured using a fluorescence-based assay in 96-well black bottom plates (Corning®, 003916, New York, NY, USA). HNE (0.5 nM) or cell lysates (20 µL, ~100 PMN/µL, ~1000 U937/µL, ~5000 HL-60/µL or ~1000 HMC-1/µL) were diluted in assay buffer (200 mM TRIS HCl, 500 mM NaCl, 0.05% Tween-20, pH 8.0). […] AMC (7-Amino-4-methylcoumarin) standard curves were generated by measuring serial dilutions of the fluorophore AMC (1 µM–0 µM) in assay buffer on the same plate and used to calculate nM AMC generation from fluorescence measurements.
(§4) U937 cells were plated in sterile 96-U-well plates (92697, TPP, Trasadingen, Switzerland) at a density of 100 cells/µL in a cell culture medium (180 µL per well). Increasing concentrations of inhibitors and solvent controls were diluted in a culture medium and added (20 µL/well) to the 96-well plate 26 h, 6 h, 3 h, and 0 h before harvesting and lysing the cells (see below). Plates were kept at 37 °C, 5% CO2, and 95% humidity throughout the incubation period. […] Similarly, freshly isolated PMN were plated at 50–100 cells/µL in PBS (1 g/L glucose) and incubated for 1 h with inhibitors or controls.
(§5) For cell lysis, cells were pelleted in the microtiter plates by centrifugation (400× g, 10 min, 4 °C) and washed three times in PBS (4 °C). Washed cells were then lysed by adding lysis buffer (PBS, 1 M NaCl, 0.1% Tween-20, pH 7.4) and freeze–thawing on dry ice. Finally, lysates were centrifuged (2100× g) to remove cell debris. Enzymatic activity of HNE was determined as described above, and residual activity present after incubation with inhibitors expressed as % of matched solvent controls.

[4] = molecular target: T3, HNE in U937 lysates; experiment: Inhibition of HNE activity in U937 lysates; assay type: biochemical
Method: as §1, §2

[5] = molecular target: T4, isolated HNE; experiment: Formation and dissociation of the HNE/inhibitor complex (pre-steady-state kinetics); assay type: biochemical
Method: To determine the association rates (kon) of the inhibitors, the enzymatic activity of HNE (0.6 nM) was recorded continuously in an SFM25 fluorometer (Biotek Kontron, Neufahrn, Germany) by following the cleavage of MeOSuc-AAPV-AMC (10 µM) at 37 °C. When a constant rate was established (i.e., after 1–5 min), an inhibitor was added, and the reaction followed for up to 60 min. The pseudo-first-order rate constant kobs was obtained by fitting the observed presteady-state progress curve to the integrated equation of Morrison with pro-Fit. Apparent second-order rate constants were subsequently calculated as k2/Ki = kobs/It by linear regression from several independent experiments using a range of concentrations. For reversible inhibitors, the dissociation rate koff was subsequentially calculated as koff = Ki × kon; for irreversible inhibitors, koff is ≈ zero. Finally, the halftime of the HNE/inhibitor complex formation and dissociation were calculated as t1/2,on = 0.693/(kass × It + koff) and t1/2,off = 0.693/koff, respectively.

[6] = molecular target: T5, HNE in mature PMN; experiment: Intracellular HNE inhibition in freshly isolated mature PMN
Method: Peripheral venous blood was collected from six healthy donors after informed consent (votum 018-09 of the local ethics committee), and differential blood counts were performed. Neutrophil granulocytes were isolated using the MACSxpress neutrophil isolation kit (Miltenyi Biotec, Bergisch Gladbach, Germany) following the manufacturer’s instructions. Residual erythrocytes were eliminated by hypotonic lysis. Neutrophils were resuspended in PBS with glucose (1 g/L) at a density of 50–100 cells/µL. The purity of the final cell population was analyzed by staining a smear using Pappenheim’s method and counting ≥200 cells using a light microscope.
as §3, §4, §5

[7] = molecular target: T6, elastase-like activity (HNE) in PMN lysates; experiment: Inhibition of elastase-like activity in PMN lysates; assay type: biochemical; conditions: 4 µM, 1 h, 37 °C; read-out: inhibition of elastase-like activity in PMN lysate
Text: Residual erythrocytes were eliminated by hypotonic lysis.
as §1

[8] = tested on: surface of neutrophils; set-up: method as in earlier work; conditions: ref 41 (Braun and Schnebli); read-out: surface binding affinity Kd; cited from earlier work
[9] = molecular target: T7, eglin C; experiment: steady-state inhibition, Morrison fit, isolated HNE
[10] = molecular target: T7, eglin C; experiment: steady-state inhibition, Morrison fit, U937 lysate

Row | Molecule | inhibition of elastase-like activity in HL-60 lysate [1] [%] | inhibition at 4 µM [2] [%] | effect on HNE activity in the U937 cell culture model (in words) [3] | inhibition at 4 µM ([4]; 4 µM, 1 h, 37 °C, read-out: inhibition of elastase-like activity in U937 lysate) [%] | half-life of the complex with HNE (in words) [5] | effect on HNE in mature PMN (in words) ([6]; 1 h incubation) | potency in PMN compared with U937 cells (in words) ([6]; PMN 1 h vs U937 0-3 h) | inhibition at 4 µM [7] [%] | Kd [8] [nM] | effect on HNE in U937 cells ([3]; 10 µM, after 26 h) | fold less effective on HNE in cell lysates than on isolated HNE ([4]; U937 lysate vs isolated HNE) [fold] | fold less potent in PMN lysates ([4]; printed 'PMN lysates') | koff ([5]; koff = Ki × kon, irreversible inhibitors ≈ zero) [s⁻¹] | kon ([5]; pre-steady-state kinetics, HNE 0.6 nM, 37 °C, mean ± SD) | IC50 ([6]; read-out: IC50, HNE in PMN, 1 h incubation) [nM] | IC50 ([6]; read-out: IC50 for the inhibition of intracellular HNE, mature neutrophils) [nM] | Ki [9] [nM] | Ki [10] [nM]
1 | CC(C)(C)C(=O)Oc1ccc(S(=O)(=O)Nc2ccccc2C(=O)NCC(=O)O)cc1 [Sivelestat, sivelestat] | 2 ± 1.2 | 99 ± 0.3 | no detectable effect; also recorded: no measurable effect; also recorded: do not cause detectable intracellular inhibition | 96 ± 0.3 | seconds to a few minutes | negligible effect | somewhat more effective in PMN than U937 cells | 97 ± 0.6 | – | – | – | – | – | – | – | – | – | –
2 | Eglin C: small leech-derived protein (70 amino acids, 8091 Da), proteinase inhibitor (protein, UniProt P01051 1-70, looked up) Eglin C: TEFGSELKSFPEVVGKTVDQAREYFTLHYPQYDVYFLPEGSPVTLDLRYNRVRVFYNPGTNVVNHVPHVG | – | – | do not inhibit HNE | – | – | inhibits intracellular HNE but only in mature neutrophils | – | – | 200 | little effect | 10 | ~ 10 fold | 3.8e-05 | 2.9 ± 0.09 × 10^6 M^−1 s^−1 | ~20 | 20 | – | –
3 | neutrophil elastase (protein) IVGGRRARPHAWPFMVSLQLRGGHFCGATLIAPNFVMSAAHCVANVNVRAVRVVLGAHNLSRREPTRQVFAVQRIFENGYDPVNLLNDIVILQLNGSATINANVQVAQLPAQGRRLGNGVQCLAMGWGLLGRNRGIASVLQELNVTVVTSLCRRSNVCTLVRGRQAGVCFGDSGSPLVCNGLIHGIASFVRGGCASGLYPDAFAPVAQFVNWIDSIIQRSEDNPCPHPRDPDPASRTH | – | – | – | – | – | – | – | – | – | – | – | – | – | – | – | – | 0.013 | 0.19
